Experimental data published in patent US20110262447A1.

Target: wild-type p53 core domain (human) (UniProt P04637)
Assay: ELISA, plates coated with recombinant core domain

wild-type p53 core domain (human), sequence (P04637 94-312): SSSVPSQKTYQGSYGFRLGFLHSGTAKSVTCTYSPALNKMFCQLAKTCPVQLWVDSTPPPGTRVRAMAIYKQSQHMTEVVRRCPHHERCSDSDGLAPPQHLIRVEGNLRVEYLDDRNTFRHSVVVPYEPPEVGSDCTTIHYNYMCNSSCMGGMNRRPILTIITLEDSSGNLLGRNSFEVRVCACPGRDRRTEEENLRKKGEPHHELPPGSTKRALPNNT

- O.D.: 1.2 O.D.
Substance: mAb 1620 (antibody)
